1 molecule from patent US20210238276A1 (INTEGRAL MOLECULAR, published 2021) can be followed below.

Holding throughout (test): flow cytometry, alanine-scan library in HEK-293T, with cytochalasin B
One test concerns the target T1, hsGLUT4 L155A (human, UniProt P14672 1-509).
T1 sequence: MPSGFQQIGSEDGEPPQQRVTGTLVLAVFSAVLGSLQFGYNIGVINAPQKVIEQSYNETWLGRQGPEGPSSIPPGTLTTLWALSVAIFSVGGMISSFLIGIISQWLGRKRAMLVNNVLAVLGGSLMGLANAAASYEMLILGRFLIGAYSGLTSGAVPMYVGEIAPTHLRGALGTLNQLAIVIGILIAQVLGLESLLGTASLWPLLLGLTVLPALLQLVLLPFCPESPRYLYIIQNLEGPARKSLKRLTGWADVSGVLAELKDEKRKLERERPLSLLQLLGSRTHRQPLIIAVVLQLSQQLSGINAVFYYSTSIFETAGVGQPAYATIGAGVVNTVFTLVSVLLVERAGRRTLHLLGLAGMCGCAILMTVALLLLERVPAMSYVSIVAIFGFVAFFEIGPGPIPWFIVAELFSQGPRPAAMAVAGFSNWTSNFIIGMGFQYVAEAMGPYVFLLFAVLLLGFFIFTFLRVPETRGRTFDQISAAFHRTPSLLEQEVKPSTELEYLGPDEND
In short, it runs like this: (§1)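 HEK-293T cells expressing individual GLUT4 alanine mutants were stained 48 h post-transfection with anti-GLUT4 scFv MAbs (2 μg/ml), then biotinylated secondary and streptavidin-PerCP, and read by high-throughput flow cytometry. Where used, cytochalasin B (10 uM final) was given for 30 min before and during primary antibody staining.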

The next test has as its target T2, hsGLUT4 E345A (human, UniProt P14672 1-509).
T2 sequence: T1 sequence with A155L, E345A
In short, it runs like this:
as §1

The target of a further test is T3, hsGLUT4 G348A (human, UniProt P14672 1-509).
T3 sequence: T1 sequence with A155L, G348A
In short, it runs like this:
as §1

For the next test, the target named is T4, hsGLUT4 E507A (human, UniProt P14672 1-509).
T4 sequence: T1 sequence with A155L, E507A
The method, boiled down: as §1

Numbering of substitutions follows the chain as printed.

B1: AB102 (Fc fusion)
scFv: ALTQPSSVSANLGGTVKITCSGGGSYGYGWYQQKSPGSAPVTVIYSNDQRPSDIPSRFSGSKSGSTATLTITGVRAEDEAIYYCGSTDSDYVGIFGAGTTLTVLGQSSRSSGGGGSSGGGGSAVTLDESGGGLQTPGGTLSLVCKASGFDFSSYATIWVRQAPGKGLEWVAGISGTGTGSSTGYAPAVKGRATISRDNGQSTVRLQLNNLRAEDTGSYFCAKSTGYGDSWIYPDSIDAWGHGTEVIVSS
notes: also called MAb AB102; not shown: Fc fragment of human IgG1, cloned in frame with the scFv
As to B1, the “% of binding to wild type GLUT4” value with hsGLUT4 L155A stood at 26%; with hsGLUT4 E345A, 80%; with hsGLUT4 G348A, 79%; with hsGLUT4 E507A it was 97%.
